Laboratory results: article PMC7545097, “Mapping the native interaction surfaces of PREP1 with PBX1 by cross-linking mass-spectrometry and mutagenesis” (Scientific Reports, 2020)

T1: PBX1 Δ105-113 (human, UniProt P40424 1-430, Δ105-113)
T1 construct: PBX1, residues 1-430, with an internal deletion; source: E. coli, purified
T1 sequence (looked up): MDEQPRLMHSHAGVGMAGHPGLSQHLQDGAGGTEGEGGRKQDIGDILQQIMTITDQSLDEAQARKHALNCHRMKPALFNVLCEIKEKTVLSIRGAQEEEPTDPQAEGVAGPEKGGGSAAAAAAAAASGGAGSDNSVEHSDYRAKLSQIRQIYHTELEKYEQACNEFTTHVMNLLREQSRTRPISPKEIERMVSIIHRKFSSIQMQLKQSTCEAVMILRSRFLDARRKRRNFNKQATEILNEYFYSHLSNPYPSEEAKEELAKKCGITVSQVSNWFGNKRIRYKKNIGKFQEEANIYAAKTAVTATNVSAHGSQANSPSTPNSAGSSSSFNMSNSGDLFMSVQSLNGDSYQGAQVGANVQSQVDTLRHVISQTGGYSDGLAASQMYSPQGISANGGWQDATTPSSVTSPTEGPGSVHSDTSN

T2: PBX1Δ43-55 (human, UniProt P40424 1-430, Δ43-55)
T2 construct: PBX1, residues 1-430, with an internal deletion; source: E. coli, purified
T2 sequence (looked up): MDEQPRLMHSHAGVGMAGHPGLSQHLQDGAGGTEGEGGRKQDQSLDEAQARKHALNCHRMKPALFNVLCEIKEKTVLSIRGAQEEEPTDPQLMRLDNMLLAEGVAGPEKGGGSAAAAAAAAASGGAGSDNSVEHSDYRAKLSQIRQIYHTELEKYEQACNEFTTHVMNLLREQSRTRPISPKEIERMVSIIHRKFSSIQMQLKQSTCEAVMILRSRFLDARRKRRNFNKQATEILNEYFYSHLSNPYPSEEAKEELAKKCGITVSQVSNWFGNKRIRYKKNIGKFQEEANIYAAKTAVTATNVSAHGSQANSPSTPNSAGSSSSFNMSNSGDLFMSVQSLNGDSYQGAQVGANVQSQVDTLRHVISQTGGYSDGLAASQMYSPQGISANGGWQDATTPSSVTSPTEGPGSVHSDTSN

T3: PREP1 L63A (UniProt P55347 1-436, L63A)
T3 construct: PREP1 (PKNOX1), residues 1-436
T3 sequence (looked up): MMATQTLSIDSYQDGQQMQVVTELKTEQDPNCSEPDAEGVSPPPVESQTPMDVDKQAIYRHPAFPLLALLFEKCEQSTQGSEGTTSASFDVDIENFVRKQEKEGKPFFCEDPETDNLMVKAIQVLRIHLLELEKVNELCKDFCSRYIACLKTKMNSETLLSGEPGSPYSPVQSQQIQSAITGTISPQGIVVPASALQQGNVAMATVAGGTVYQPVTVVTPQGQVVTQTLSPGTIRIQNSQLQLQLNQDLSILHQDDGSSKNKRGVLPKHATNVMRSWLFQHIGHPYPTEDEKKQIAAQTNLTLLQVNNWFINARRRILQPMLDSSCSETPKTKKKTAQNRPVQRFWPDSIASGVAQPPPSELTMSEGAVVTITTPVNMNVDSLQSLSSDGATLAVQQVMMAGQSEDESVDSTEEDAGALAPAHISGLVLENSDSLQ

T4: PREP1 L129A (UniProt P55347 1-436, L129A)
T4 construct: PREP1 (PKNOX1), residues 1-436
T4 sequence (looked up): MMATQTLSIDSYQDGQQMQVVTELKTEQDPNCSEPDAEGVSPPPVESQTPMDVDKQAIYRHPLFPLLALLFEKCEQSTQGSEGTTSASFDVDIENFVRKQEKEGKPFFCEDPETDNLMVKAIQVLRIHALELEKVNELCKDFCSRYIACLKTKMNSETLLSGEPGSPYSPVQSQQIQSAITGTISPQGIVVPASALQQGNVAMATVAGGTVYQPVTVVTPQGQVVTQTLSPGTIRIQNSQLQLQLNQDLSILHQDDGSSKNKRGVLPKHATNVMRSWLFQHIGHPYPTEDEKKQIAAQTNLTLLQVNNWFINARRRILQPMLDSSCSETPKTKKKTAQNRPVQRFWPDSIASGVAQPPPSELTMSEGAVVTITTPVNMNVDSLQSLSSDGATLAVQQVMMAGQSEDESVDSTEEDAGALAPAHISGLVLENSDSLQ


How the values were obtained:
Assay in all cases: time-resolved fluorescence immunoassay (TR-FIA); plate coated with monoclonal anti-PBX1; PBX1 pre-incubated with PREP1 or MEIS1 for 1 h on ice, 10 µg/mL in 1% BSA PBS, 1 h at room temperature on the plate; detected with anti-PREP1 or biotinylated anti-MEIS1/2 and Eu^3+ conjugates; normalised to the wild-type protein taken as 1
Settings in all cases: both partners purified
PBX1 Δ105-113 = target: T1, PBX1 Δ105-113
PBX1Δ43-55 = target: T2, PBX1Δ43-55
PREP1 L63A = target: T3, PREP1 L63A
PREP1 L129A = target: T4, PREP1 L129A

binding relative to wild type (PBX1 Δ105-113) | binding relative to wild type (PBX1Δ43-55) | binding result (PREP1 L63A) | binding result (PREP1 L129A) | Binder
75% | 80% |  |  | PREP1_(1-436), wild-type recombinant (TR-FIA) (natural protein, UniProt P55347 1-436, looked up, also called wild-type PREP1; PKNOX1; source: E. coli, purified) MMATQTLSIDSYQDGQQMQVVTELKTEQDPNCSEPDAEGVSPPPVESQTPMDVDKQAIYRHPLFPLLALLFEKCEQSTQGSEGTTSASFDVDIENFVRKQEKEGKPFFCEDPETDNLMVKAIQVLRIHLLELEKVNELCKDFCSRYIACLKTKMNSETLLSGEPGSPYSPVQSQQIQSAITGTISPQGIVVPASALQQGNVAMATVAGGTVYQPVTVVTPQGQVVTQTLSPGTIRIQNSQLQLQLNQDLSILHQDDGSSKNKRGVLPKHATNVMRSWLFQHIGHPYPTEDEKKQIAAQTNLTLLQVNNWFINARRRILQPMLDSSCSETPKTKKKTAQNRPVQRFWPDSIASGVAQPPPSELTMSEGAVVTITTPVNMNVDSLQSLSSDGATLAVQQVMMAGQSEDESVDSTEEDAGALAPAHISGLVLENSDSLQ
 |  | binds | binds | PBX1_(1-430), wild-type recombinant (natural protein, human, UniProt P40424 1-430, looked up, also called wild-type PBX1; purified recombinant human PBX1; source: E. coli, purified) MDEQPRLMHSHAGVGMAGHPGLSQHLQDGAGGTEGEGGRKQDIGDILQQIMTITDQSLDEAQARKHALNCHRMKPALFNVLCEIKEKTVLSIRGAQEEEPTDPQLMRLDNMLLAEGVAGPEKGGGSAAAAAAAAASGGAGSDNSVEHSDYRAKLSQIRQIYHTELEKYEQACNEFTTHVMNLLREQSRTRPISPKEIERMVSIIHRKFSSIQMQLKQSTCEAVMILRSRFLDARRKRRNFNKQATEILNEYFYSHLSNPYPSEEAKEELAKKCGITVSQVSNWFGNKRIRYKKNIGKFQEEANIYAAKTAVTATNVSAHGSQANSPSTPNSAGSSSSFNMSNSGDLFMSVQSLNGDSYQGAQVGANVQSQVDTLRHVISQTGGYSDGLAASQMYSPQGISANGGWQDATTPSSVTSPTEGPGSVHSDTSN
